This is an account of results in article PMC3433420.

Values joined by “and” are separate entries in the source; they are usually repeats but may differ in a detail not shown here. Identical values can stand only once.

In assay [1] the target is ErbB3 Y789 non-phosphorylated peptide, rhodamine-labelled (human). In words: fluorescence polarisation; saturation binding in solution: rhodamine peptide fixed at 10 nM, protein titrated 0.002-10 uM, 20 min at room temperature; assay buffer 20 mM HEPES, 100 mM KCl, 0.1% Tween-20, 5 mM DTT, pH 7.8; apparent KD.
Another assay has as its target ABL2 SH2 domain (human) (UniProt P42684). In words: peptide or protein array; SH2/PTB proteins spotted on aldehyde slides, rhodamine peptide titrated in buffer B (20 mM HEPES, 100 mM KCl, 0.1% Tween-20, 5 mM DTT, pH 7.8), 1 h at room temperature; replicate assays.
In a further assay the target is GRAP2 SH2 domain (human) (UniProt O75791). The description is as above.
Another assay has as its target GRB10 SH2 domain (human) (UniProt Q13322). Described as above.
In the next assay the target is HSH2D SH2 domain (human) (UniProt Q96JZ2). Described as above.
Another assay has as its target LCK SH2 domain (human) (UniProt P06239). Described as above.
For the next assay, the target named is NCK1 SH2 domain (human) (UniProt P16333). The assay is described as above.
The target of assay [2] is PIK3R1 C-terminal SH2 domain (human). The assay is described as above.
In assay [3] the target is PIK3R3 tandem SH2 domains (human). Described as above.
Assay [4] deals with PTPN11 tandem SH2 domains (human). Described as above.
In assay [5] the target is RASA1 C-terminal SH2 domain (human). The description is as above.
The target in assay [6] is RASA1 N-terminal SH2 domain (human) (UniProt P20936). The assay is described as above.
In the next assay the target is SH2B3 SH2 domain (human) (UniProt Q9UQQ2). The description is as above.
The target in assay [7] is SH2D1A SH2 domain (human) (UniProt O60880). The assay is described as above.
The target of assay [8] is SH2D1B SH2 domain (human) (UniProt O14796). Described as above.
Assay [9] addresses SH2D3A SH2 domain (human) (UniProt Q9BRG2). The assay is described as above.
The target in assay [10] is SH2D3C SH2 domain (human) (UniProt Q8N5H7). The description is as above.
The next assay has as its target SHC3 SH2 domain (human) (UniProt Q92529). The assay is described as above.
The target in the next assay is SHF SH2 domain (human) (UniProt Q7M4L6). Described as above.
Assay [11] concerns the target SYK N-terminal SH2 domain (human). The description is as above.
The next assay has as its target YES1 SH2 domain (human) (UniProt P07947). Described as above.
Assay [12] concerns the target ZAP70 C-terminal SH2 domain (human) (UniProt P43403). The assay is described as above.

Sequence of SH2D3A SH2 domain (human) (Q9BRG2 15-114): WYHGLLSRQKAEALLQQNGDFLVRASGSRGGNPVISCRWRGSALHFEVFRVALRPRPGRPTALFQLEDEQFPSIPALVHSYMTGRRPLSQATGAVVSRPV
Sequence of SH2D1A SH2 domain (human) (O60880 6-104): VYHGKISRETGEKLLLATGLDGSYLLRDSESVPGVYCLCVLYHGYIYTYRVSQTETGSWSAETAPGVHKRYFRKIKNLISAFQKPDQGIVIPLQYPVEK
Sequence of SH2D1B SH2 domain (human) (O14796 5-101): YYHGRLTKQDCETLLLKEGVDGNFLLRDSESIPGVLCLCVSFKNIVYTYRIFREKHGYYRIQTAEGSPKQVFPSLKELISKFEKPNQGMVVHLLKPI
Sequence of ABL2 SH2 domain (human) (P42684 173-263): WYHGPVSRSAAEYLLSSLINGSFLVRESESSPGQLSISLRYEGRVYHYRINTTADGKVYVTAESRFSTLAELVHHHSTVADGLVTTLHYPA
Sequence of YES1 SH2 domain (human) (P07947 158-255): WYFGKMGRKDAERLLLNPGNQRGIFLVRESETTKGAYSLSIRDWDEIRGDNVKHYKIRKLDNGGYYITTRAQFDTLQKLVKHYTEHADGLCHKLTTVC
Sequence of ZAP70 C-terminal SH2 domain (human) (P43403 whole entry, the tested form may be a part): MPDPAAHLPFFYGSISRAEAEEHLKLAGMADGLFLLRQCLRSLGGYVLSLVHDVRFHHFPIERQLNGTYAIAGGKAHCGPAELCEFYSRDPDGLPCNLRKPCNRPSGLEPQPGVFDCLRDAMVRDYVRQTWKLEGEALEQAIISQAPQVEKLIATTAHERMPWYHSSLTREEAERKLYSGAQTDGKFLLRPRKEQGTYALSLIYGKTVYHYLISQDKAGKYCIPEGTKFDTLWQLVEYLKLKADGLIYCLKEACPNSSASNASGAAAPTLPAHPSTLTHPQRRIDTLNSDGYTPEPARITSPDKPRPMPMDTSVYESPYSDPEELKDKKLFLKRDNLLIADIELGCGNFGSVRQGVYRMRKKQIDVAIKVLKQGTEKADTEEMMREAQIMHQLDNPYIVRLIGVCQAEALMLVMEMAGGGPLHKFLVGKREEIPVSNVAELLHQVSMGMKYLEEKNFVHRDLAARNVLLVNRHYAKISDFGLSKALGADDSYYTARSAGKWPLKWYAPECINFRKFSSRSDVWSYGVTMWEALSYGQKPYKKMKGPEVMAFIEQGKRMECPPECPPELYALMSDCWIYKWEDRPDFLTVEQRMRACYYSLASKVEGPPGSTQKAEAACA
Sequence of SHF SH2 domain (human) (Q7M4L6 323-418): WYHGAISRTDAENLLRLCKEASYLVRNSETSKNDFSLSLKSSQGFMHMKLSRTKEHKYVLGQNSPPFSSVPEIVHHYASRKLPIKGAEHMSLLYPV
Sequence of GRB10 SH2 domain (human) (Q13322 493-574): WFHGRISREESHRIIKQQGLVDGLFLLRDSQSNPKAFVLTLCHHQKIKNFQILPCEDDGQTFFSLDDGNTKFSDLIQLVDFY
Sequence of GRAP2 SH2 domain (human) (O75791 58-149): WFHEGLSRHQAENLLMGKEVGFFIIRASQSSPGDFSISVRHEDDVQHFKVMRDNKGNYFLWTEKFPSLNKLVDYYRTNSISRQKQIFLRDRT
Sequence of SH2B3 SH2 domain (human) (Q9UQQ2 364-462): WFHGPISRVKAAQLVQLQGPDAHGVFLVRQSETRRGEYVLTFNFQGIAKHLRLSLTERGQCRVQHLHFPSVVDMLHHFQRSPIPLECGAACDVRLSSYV
Sequence of LCK SH2 domain (human) (P06239 127-224): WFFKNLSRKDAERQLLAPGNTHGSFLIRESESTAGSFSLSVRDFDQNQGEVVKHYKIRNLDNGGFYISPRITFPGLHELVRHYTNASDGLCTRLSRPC
Sequence of HSH2D SH2 domain (human) (Q96JZ2 34-125): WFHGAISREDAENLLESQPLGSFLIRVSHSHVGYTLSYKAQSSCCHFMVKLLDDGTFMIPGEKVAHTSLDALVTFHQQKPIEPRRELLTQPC
Sequence of SH2D3C SH2 domain (human) (Q8N5H7 220-319): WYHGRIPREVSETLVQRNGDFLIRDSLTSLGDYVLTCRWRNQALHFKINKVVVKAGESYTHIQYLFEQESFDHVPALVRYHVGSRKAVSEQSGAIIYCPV
Sequence of RASA1 N-terminal SH2 domain (human) (P20936 whole entry, the tested form may be a part): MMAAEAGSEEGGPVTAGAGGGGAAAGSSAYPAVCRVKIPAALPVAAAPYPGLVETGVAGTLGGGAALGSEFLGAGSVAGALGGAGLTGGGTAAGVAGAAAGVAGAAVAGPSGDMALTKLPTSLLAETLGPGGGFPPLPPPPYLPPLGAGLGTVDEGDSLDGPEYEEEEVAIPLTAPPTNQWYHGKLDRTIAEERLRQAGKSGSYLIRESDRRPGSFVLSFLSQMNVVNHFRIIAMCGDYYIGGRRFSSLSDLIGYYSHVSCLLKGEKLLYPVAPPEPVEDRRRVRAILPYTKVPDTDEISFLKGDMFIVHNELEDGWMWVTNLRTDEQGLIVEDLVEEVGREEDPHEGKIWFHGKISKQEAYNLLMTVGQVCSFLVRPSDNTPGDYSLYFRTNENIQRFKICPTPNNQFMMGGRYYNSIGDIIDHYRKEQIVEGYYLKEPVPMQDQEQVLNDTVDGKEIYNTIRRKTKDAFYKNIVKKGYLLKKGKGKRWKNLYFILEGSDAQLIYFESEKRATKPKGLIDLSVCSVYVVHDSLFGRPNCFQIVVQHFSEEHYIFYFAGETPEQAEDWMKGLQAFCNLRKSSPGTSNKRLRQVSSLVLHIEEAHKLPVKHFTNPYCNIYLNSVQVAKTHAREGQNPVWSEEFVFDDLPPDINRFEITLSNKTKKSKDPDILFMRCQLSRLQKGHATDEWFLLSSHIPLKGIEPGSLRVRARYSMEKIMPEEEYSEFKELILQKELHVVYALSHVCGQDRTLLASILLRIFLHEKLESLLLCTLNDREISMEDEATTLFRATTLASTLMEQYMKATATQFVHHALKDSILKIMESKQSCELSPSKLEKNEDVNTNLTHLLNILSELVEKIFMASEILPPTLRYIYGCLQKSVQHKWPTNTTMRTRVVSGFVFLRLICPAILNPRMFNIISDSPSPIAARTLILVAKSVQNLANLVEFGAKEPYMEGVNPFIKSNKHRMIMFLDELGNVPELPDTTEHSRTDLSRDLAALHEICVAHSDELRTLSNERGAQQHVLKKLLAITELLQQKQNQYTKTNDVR
Sequence of SHC3 SH2 domain (human) (Q92529 499-590): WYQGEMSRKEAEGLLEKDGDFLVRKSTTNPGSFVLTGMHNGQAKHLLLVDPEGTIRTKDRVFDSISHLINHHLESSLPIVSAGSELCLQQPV

On to “PIK3R1 tandem SH2 domains (from UniProt P27986 1-724) (domain or fragment)”, for which, in assay [1], the Kd came to 1.59 µM.
On to “ErbB4 pY733 phosphopeptide (18-mer), rhodamine-labelled, for protein microarrays”, for which the Kd was 1.37 µM and 1.73 µM and 0.268 µM with ABL2 SH2 domain (human); 0.852 µM with GRAP2 SH2 domain (human); 1.27 µM in the assay with GRB10 SH2 domain (human); 2.21 µM with HSH2D SH2 domain (human); 1.24 µM in the assay with LCK SH2 domain (human); 0.724 µM with NCK1 SH2 domain (human). Moreover, the Kd in assay [2] is 0.438 µM; in [3], 7.82 µM and 10.5 µM; in [4] it was 0.177 µM; in assay [5] it was 10.4 µM; in assay [6] it was 0.685 µM; in the assay with SH2B3 SH2 domain (human), 1.18 µM. The Kd is 0.823 µM and 1.61 µM and 1.68 µM in assay [7]; 0.404 µM and 1.28 µM and 1.34 µM in [8]; 0.603 µM and 0.79 µM and 0.912 µM in assay [9]; 9.36 µM in assay [10]; 7.66 µM with SHC3 SH2 domain (human); 2.7 µM and 8.5 µM with SHF SH2 domain (human). The Kd in [11] is 3.04 µM and 3.45 µM and 0.803 µM; in the assay with YES1 SH2 domain (human) it was 1.18 µM and 1.17 µM and 0.421 µM; in assay [12], 1.53 µM and 1.52 µM and 0.404 µM.
